Laboratory results reported in PMC3927129.

How the values were obtained:
[1] = target: subunit L of the Thermus thermophilus rotary ATPase (L12 membrane ring) (Thermus thermophilus); assay: native MS
[2] = target: membranous subcomplex VO (ICL12) of the Thermus thermophilus rotary ATPase (Thermus thermophilus) (UniProt P74902); assay: native MS

Substance | stoichiometry N [1] | stoichiometry N [2]
subunit L of the Thermus thermophilus rotary ATPase (L12 membrane ring) (natural protein) | 12 | –
peripheral stalk (subunits E and G) of the Thermus thermophilus rotary ATPase (from UniProt P74901 1-188) (complex) | – | 2
